Experimental data published in patent US9289506B2, “Surface binding of nanoparticle based drug delivery to tissue” (Massachusetts Institute of Technology, priority 2013, dated 2016).

Experiments:
[1] = Competitive binding of FITC-Avidin and unlabeled Avidin in cartilage (binding isotherm fit); design: species or system bovine; settings: labeled Avidin ≦1 μM, no unlabeled Avidin, 3 day equilibration, 37° C.
Protocol: To test this hypothesis, competitive binding experiments were performed in which 3 mm diameter cartilage disks were equilibrated for 3 days in 300 μl buffer containing a fixed amount of (fluorescently labeled) FITC-Avidin (1 μM) and graded amounts of unlabeled Avidin (0, 10, 76, 100, and 203 μM). The disks were split into half disks to reduce the time needed for equilibration, which was performed in 96 well plates at 37° C. The uptake ratio, RU, was measured and plotted versus the total bath concentration of Avidin (labeled+unlabeled, FIG. 13), where RU is defined as the total concentration of Avidin inside the cartilage (bound (CB) plus free (CF)) per intra-tissue water weight, normalized to the Avidin concentration in the equilibration bath (CBath):
Labeled and unlabeled Avidin were held to partition into the cartilage identically. At very low concentration of the labeled Avidin (≦1 μM), a high uptake of ˜120 was observed. When unlabeled Avidin was added to the bath, both species (labeled and unlabeled) could compete for the same (constant) number of binding sites available in the tissue (site density NT). […] To model the data of FIG. 13, a first-order, bimolecular, reversible reaction was produced to describe binding of Avidin to a single dominant binding species within cartilage. A theoretical model was adopted, (Garcia et al., Arch Biochem Biophys, 2003) previously used for characterizing the binding of soluble insulin like growth factor-1 (IGF-1) to IGF-binding proteins (IGF-BPs) that are uniformly enmeshed and fixed within cartilage matrix. According to this model, the equilibrium molar concentration of free solute (CF), bound solute (CB), intra-tissue binding site density (NT) and the equilibrium dissociation constant (KEQ) are related by the binding isotherm:
[formula] which is similar in form to a Langmuir adsorption isotherm. […]
[formula] […] Thus, K is determined by both steric hindrance and electrostatic (Donnan) interactions. […]

[2] = Intra-articular injection of Avidin or Neutravidin in rat knee joints: penetration, uptake and retention in joint tissues
Protocol: Intra-articular (i.a.) injections of 50 μl of 50 μM Avidin (pI 10.5, 66 kDa, diameter ˜7 nm) or Neutravidin (neutral at pH 7, 60 kDa, diameter ˜7 nm) conjugated with Texas Red (both from Invitrogen, CA) were administered in the right knee joints of healthy 18-20 weeks old Fischer-344 rats (Charles River Laboratories). Following the injection, rat knees were flexed and extended to distribute the injected solute throughout the intra-articular space. Contralateral left knees were used as controls. Avidin injected rats were sacrificed at 4 different time points (6 h, 1 d, 4 d, 7 d) and Neutravidin injected rats were sacrificed after 1 day. The following tissue types were extracted from each joint: articular cartilage removed from the patellar groove, femoral condyle and tibial plateau using a scalpel; medial and lateral menisci; i.a. ligaments (ACL & PCL); patellar and quadriceps tendons; and femoral bone. 6 rats were used per treatment condition for a total of 30 rats. Using a digital caliper (Fisher Scientific), the joint thickness was measured before and after the injection at each time point to check for joint swelling indicating an inflammatory response to the injection.
Tissue samples extracted from the rat joints injected with Avidin-Texas Red (Excitation at 595 nm and emission at 615 nm) and sacrificed at 6 h were imaged using a confocal microscope (OLYMPUS, FluoView FV1000) at 10× magnification by taking Z stacks. Images were taken in X-Y plane, which represents the surface through which Avidin diffused. 3D images were reconstructed using Z stacking (slice thickness˜4.5 μm) and cross-sections in the X-Z plane of these 3D images were taken.
Tissue samples from all treatment conditions were then desorbed in 10×PBS for 48 h in 37° C. incubator to disrupt electrostatic interactions and release Avidin/Neutravidin into the desorption bath. […] At the end of the experiment, tissue samples were removed from the bath, lyophilized and the dry weight was measured. Fluorescence signal from desorption bath was quantified using a plate reader (Synergy HT, BioTek). […] The solute uptake was calculated as the concentration of labeled solute in the tissue samples normalized by tissue dry weight.
The half-life of Avidin was calculated by fitting an exponential curve to the experimental data:
Where, C0 is the initial and C(t) is the final Avidin concentration in tissue after time t and λ is the decay constant.

[3] = One-way diffusion of solutes into cartilage half disks in transport chamber, confocal microscopy imaging; format: in vitro ADME, bovine; settings: normal cartilage, 4 days
Source text: Solute Types: Two types of 15 nm diameter (MW˜300 kDa) Quantum Dots (QD) were used: (i) positively charged, and (ii) charge-neutral; same concentration. Transport of FITC (MW˜300 Da, diam˜0.9 nm) and dextrans (Dex) conjugated with FITC (Sigma Aldrich) of different MW (˜8 kDa, diam˜4.3 nm; ˜40 kDa, diam˜10 nm) were also investigated.
Transport Studies: A special PMMA transparent transport chamber was designed to allow diffusion of solutes into only one side (superficial zone) of the cartilage disk. The chamber was treated with Casein to block non-specific binding of solutes to chamber surfaces. The equilibrated cartilage disks were then cut into halves and placed in the middle of the ‘slot chambers’ of the fixture. The chamber side facing the superficial zone was filled with ˜45 μl of solute-PBS solution; the other side was filled with 1×PBS alone. […]
Using a scalpel, a slice (100-200 μm thick) was then cut from the center of each disk (FIG. 1B). […] Appropriate filters were chosen to eliminate auto-fluorescence of cartilage at the settings used for imaging. […] To ensure proper image comparison, solute concentrations were chosen such that the FITC concentration in each solution was identical, thereby giving equal fluorescence intensities.

[4] = Equilibrium uptake and desorption of Avidin and NeutrAvidin in cartilage disks; format: in vitro ADME, bovine
Source text: Cartilage disks were harvested from the femoropatellar grooves of 1-2 week old bovine calf knee joints (obtained from Research 87, Hopkinton, Mass.) as described previously (Patwari et al., Arthritis Rheum, 2003). Briefly, cylindrical cartilage disks (3 mm or 6 mm diameter) were cored using a dermal punch and then sliced to obtain the top 1 mm of cartilage with intact superficial zone. Cartilage disks for all treatment groups were matched for depth and location along the joint surface. The disks were then pre-equilibrated in PBS (without Ca^2±/Mg^2±) supplemented with protease inhibitors (Complete Protease Cocktail tablet in 50 mL PBS, Roche Applied Science, IN) in a 37° C., 5% CO2 incubator for 24-48 h.
Equilibrium uptake of Avidin and NeutrAvidin: 3 mm diameter, 1 mm thick cartilage explants were incubated for specific times in 300 μl of known concentration (3 μM) of FITC-Avidin and FITC-NeutrAvidin, supplemented with protease inhibitors at 37° C. in a 96 well plate format. After removal from the absorption baths, the disks were rinsed, gently wiped and then incubated in 1× or 10×PBS supplemented with protease inhibitors for 24 h or longer as specified. At the end of the experiment, the surfaces of each disk were quickly blotted with Kimwipes and the wet weight was measured. The disks were then lyophilized and the dry weight was measured; the water weight was calculated from the tissue wet and dry weights. The fluorescence signal in the absorption and desorption baths was quantified using a plate reader (1400 Wallace Victor, PerkinElmer, MA); the solute content inside the cartilage disk was determined from the difference between the fluorescence reading of the absorption/desorption baths before and after incubation. […] The solute uptake ratio was calculated as the concentration of the FITC-solute in the cartilage (per intra-tissue water weight) normalized to the concentration of FITC-solute in the equilibration bath.

[5] = rabbit knee; cited from earlier work
[6] = Non-equilibrium diffusive transport across cartilage disks (transport cell); format: in vitro ADME, bovine; settings: free FITC added upstream at t=186 min
Protocol: Real-time measurement of diffusive transport of Avidin and NeutrAvidin through young bovine cartilage disks (with intact superficial zone) was measured using a diffusion chamber consisting of two compartments as described previously (Garcia et al., Arch Biochem Biophys, 2003). Groups of three cartilage disks (6 mm diameter, 400 μm thick) were clamped by O-rings between the two compartments of the diffusion chamber (with total exposed tissue area for transport of 0.28 cm^2/disk), such that solute transport from the upstream compartment into and across the cartilage disks, simultaneously, could occur only from the superficial zone of the cartilage (schematic shown in the inset of FIG. 14). The compartments were treated with casein to prevent non-specific adsorption of solutes to the chamber surfaces. […] Aliquots were taken from each chamber at different time intervals, and fluorescence was measured using a plate reader.
The compartment volume of 25 ml is approximately 1,000× larger than the volume of the cartilage plugs in the configuration of FIG. 14 (inset). […] This configuration thereby focuses on quantitation of steady state solute flux and assessment of effective solute diffusivity within cartilage. […]
[formula] where δ is the thickness of the cartilage disk (˜400 μm). DEFF for Avidin was calculated to be 3.8×10^−7 cm^2/s. […]

[7] = pH 7
Source text: For the non-covalent conjugation, drug was entrapped inside Avidin structure supra-molecularly, while an ester linker and/or pH sensitive hydrazone linker was utilized for the covalent conjugation.

With “Avidin-FITC: FITC-conjugated Avidin [reference compound]” the “uptake ratio RU” value [1] was roughly 120.
In the case of “NeutrAvidin: electrically neutral globular protein at pH 7, 60 kDa, diameter ~7 nm; neutral counterpart of Avidin [reference compound]”, the “presence in rat cartilage and patellar tendon” value ([2]; 24 h after i.a. injection) is reported as “no Neutravidin present”, the “presence in meniscus, ligaments and quadriceps tendon” value ([2]; 24 h after i.a. injection, compared to Avidin) is reported as “small but very insignificant amounts” and the “detection in the femoral bone” value ([2]; any time point) is reported as “Neither Avidin nor Neutravidin was detected”. The “clearance from joint after i.a. injection” value ([2]; within 24 h) was “almost complete clearance”, the “penetration into cartilage explant” value [3] was “penetrated approximately half the sample thickness” and the “percent of absorbed solute diffused out of the cartilage” value ([4]; 1×PBS, within 1 day) was “About 50%”. The mean uptake ratio ([4]; 40% GAG-depleted cartilage (chondroitinase-ABC), 24 h) was 0.55, the “partition coefficient KNeutrAvidin” value ([4]; estimated from the data of FIG. 12B) was 0.44 and the mean uptake ratio ([4]; normal cartilage, 24 h) was 0.28. It also gave a mean uptake ratio ([4]; normal cartilage, 4 days) of roughly 0.44.
In the case of albumin, the Half-life [5] is listed as 1.23 to 3.9 h.
With “fluorescein isothiocyanate [Fluorescein Isothiocyanate (FITC), reference compound]” the diffusivity [6] was 2.8×10^−5 cm^2/s.
With “hydrazone linker: Avidin conjugated with dexamethasone through pH sensitive hydrazone linkage via biotinylated PEG (FIG. 21C, FIG. 24)” the stability of linker [7] was “extremely stable”.
